Patent US20050164936

Columns and labels:
MCP-2, P80075 = target: T1, MCP-2, P80075
T1 chain: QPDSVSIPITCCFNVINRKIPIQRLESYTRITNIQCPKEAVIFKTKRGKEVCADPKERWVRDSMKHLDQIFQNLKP

RANTES(1-68) = target: T2, RANTES(1-68)
T2 chain: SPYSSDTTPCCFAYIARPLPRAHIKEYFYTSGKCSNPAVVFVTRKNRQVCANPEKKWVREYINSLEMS

[1] = target: monocyte chemotactic protein-3 (MCP-3), P80098
monocyte chemotactic protein-3 (MCP-3), P80098, sequence (P80098 24-99): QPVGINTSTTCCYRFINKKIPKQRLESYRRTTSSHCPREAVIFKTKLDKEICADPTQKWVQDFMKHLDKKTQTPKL

MCP-1, P13500, sequence (P13500 whole entry, looked up): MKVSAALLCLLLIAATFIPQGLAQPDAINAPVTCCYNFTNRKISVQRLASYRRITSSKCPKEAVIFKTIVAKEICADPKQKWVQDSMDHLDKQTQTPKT

B1: Human CD26/DPP IV (protein)
chain: MKTPWKVLLGLLGAAALVTIITVPVVLLNKGTDDATADSRKTYTLTDYLKNTYRLKLYSLRWISDHEYLYKQENNILVFNAEYGNSSVFLENSTFDEFGHSINDYSISPDGQFILLEYNYVKQWRHSYTASYDIYDLNKRQLITEERIPNNTQWVTWSPVGHKLAYVWNNDIYVKIEPNLPSYRITWTGKEDIIYNGITDWVYEEEVFSAYSALWWSPNGTFLAYAQFNDTEVPLIEYSFYSDESLQYPKTVRVPYPKAGAVNPTVKFFVVNTDSLSSVTNATSIQITAPASMLIGDHYLCDVTWATQERISLQWLRRIQNYSVMDICDYDESSGRWNCLVARQHIEMSTTGWVGRFRPSEPHFTLDGNSFYKIISNEEGYRHICYFQIDKKDCTFITKGTWEVIGIEALTSDYLYYISNEYKGMPGGRNLYKIQLSDYTKVTCLSCELNPERCQYYSVSFSKEAKYYQLRCSGPGLPLYTLHSSVNDKGLRVLEDNSALDKMLQNVQMPSKKLDFIILNETKFWYQMILPPHFDKSKKYPLLLDVYAGPCSQKADTVFRLNWATYLASTENIIVASFDGRGSGYQGDKIMHAINRRLGTFEVEDQIEAARQFSKMGFVDNKRIAIWGWSYGGYVTSMVLGSGSGVFKCGIAVAPVSRWEYYDSVYTERYMGLPTPEDNLDHYRNSTVMSRAENFKQVEYLLIHGTADDNVHFQQSAQISKALVDVGVDFQAMWYTDEDHGIASSTAHQHIYTHMSHFIKQCFSLP
proteolytic processing (overnight incubation, Edman degradation) (MCP-2, P80075): no NH2-terminal sequence could be detected, indicating that CD26/DPP IV does not alter the NH2-terminus of MCPs
proteolytic processing (overnight incubation, Edman degradation) (MCP-1, P13500): no NH2-terminal sequence could be detected, indicating that CD26/DPP IV does not alter the NH2-terminus of MCPs
proteolytic processing (overnight incubation, Edman degradation) (RANTES(1-68)): CD26/DPP IV treatment of RANTES resulted in the removal of the NH2-terminal dipeptides
proteolytic processing (overnight incubation, Edman degradation) [1]: no NH2-terminal sequence could be detected, indicating that CD26/DPP IV does not alter the NH2-terminus of MCPs
